Key:
[1] = target: T1, human TGF-β1 (immobilised on the CM5 chip, Biacore) (human, UniProt P01137 279-390); assay: SPR (Biacore), human TGF-β1 amine-coupled to CM5, 1:1 fit
T1 construct: also called antigen TGF-β1
Experimental: The affinity constants of CT101 with human TGF-β1 were measured with a Biacore system for molecular interaction. HBS-EP served as buffer, human TGF-β1 was immobilized on the surface of CM5 chip by Bicaore standard amino coupling. Binding of antibody CT101 to human TGF-β1 was performed, where the concentration of antibody CT101 was 8-250 nM (2 fold dilution), the flow rate was 30 μl/min, the binding duration was 120 s, and the dissociation duration was 880 s. The chip was regenerated using 10 mM glycine, where PH was 2.7, the flow rate was 30 μl/min, and the duration was 120 s. The affinity constants were obtained by data fitting analysis with a 1:1 model. Data was collected with Biacore Control 2.0 software and analyzed using Biacore T200 Evaluation 2.0 software. The kinetics parameters of antibodies CT102 and CAT192 binding to human TGF-β1 are shown in Table 2, and the test results of specific kinetic parameters of antibody CT101 to human TGF-β1 are shown in FIG. 21.

[2] = target: T2, fusion protein TGF-β1-His (human, UniProt P01137 279-390); assay: competitive ELISA, plate coated with TGF-β1-His, antibody titrated against human TGFβRII-ECD-Fc-biotin (0.1 µg/ml), detection with SA-HRP
T2 construct: 118 aa: a 112-residue TGF-β1 segment with a C-terminal His6 tag
T2 sequence (P01137 other isoform, or with tags, fused parts or gaps limits assumed): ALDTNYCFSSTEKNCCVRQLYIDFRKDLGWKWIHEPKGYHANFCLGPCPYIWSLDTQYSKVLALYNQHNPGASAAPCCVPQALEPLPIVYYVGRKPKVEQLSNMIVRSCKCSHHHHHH
Experimental: (§1) The ELISA plate was coated with TGF-β1-His and incubated at 37° C. for 3 hours. After rinsing the plate, 1% BSA was used for blocking at 37° C. for one hour. After rinsing the plate, serially diluted antibody and human TGFβRII-ECD-Fc-biotin (final concentration 0.1 μg/ml) were added and incubated at room temperature for 2 hours. After rinsing the plate, HRP labeled streptavidin SA-HRP (1:2000) working solution was added and incubated at 37° C. for 30 minutes. After rinsing the plate, TMB developing solution was added to develop for 5 min in a dark place, and termination solution was added to terminate the chromogenic reaction. The ELISA plate was immediately put into an ELISA reader, and the optical wavelength of 450 nm was selected to read the OD value of each well of the ELISA plate. The data was analyzed and processed with SoftMax Pro software.

[3] = target: TGF-β1 (inducer of the TGF-β/Smad reporter signal) (UniProt P01137 279-390, limits assumed); assay: cell-based or functional assay
TGF-β1 (inducer of the TGF-β/Smad reporter signal), sequence (P01137 279-390 limits assumed): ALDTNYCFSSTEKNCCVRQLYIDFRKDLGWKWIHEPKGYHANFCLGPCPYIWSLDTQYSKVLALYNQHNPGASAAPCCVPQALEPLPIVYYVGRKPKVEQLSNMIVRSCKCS

[4] = target: T2, fusion protein TGF-β1-His; assay: indirect ELISA, TGF-β1-His coated
Experimental: as §1, with “blocking” for “blocking at 37° C.”, “antibody was” for “antibody and human TGFβRII-ECD-Fc-biotin (final concentration 0.1 μg/ml) were”, “at 37° C.” for “at room temperature”, “for 60 minutes.” for “for 2 hours.”, “plate, enzyme-labeled donkey anti-human IgG secondary antibody” for “plate, HRP labeled streptavidin SA-HRP (1:2000)”, “5 minutes” for “5 min”

[5] = target: T2, fusion protein TGF-β1-His; assay: competitive ELISA, TGF-β1-His coated; competitor human TGFβRII-ECD-Fc-biotin 0.1 µg/ml
Experimental: as §1

[6] = target: T2, fusion protein TGF-β1-His; assay: indirect ELISA, plate coated with TGF-β1-His, detection with enzyme-labeled anti-human IgG
Experimental: as §1, with “blocking” for “blocking at 37° C.”, “antibody was” for “antibody and human TGFβRII-ECD-Fc-biotin (final concentration 0.1 μg/ml) were”, “at 37° C.” for “at room temperature”, “for 60 minutes.” for “for 2 hours.”, “plate, enzyme-labeled donkey anti-human IgG secondary antibody” for “plate, HRP labeled streptavidin SA-HRP (1:2000)”, “5 minutes” for “5 min”

[7] = target: T1, human TGF-β1 (immobilised on the CM5 …); assay: SPR (Biacore), human TGF-β1 amine-coupled to CM5, antibody 250 nM, 1:1 fit
Experimental: The affinity constants of CT101, CT102, CT111, and CT112 with human TGF-β1 were measured with a Biacore molecular interaction meter. HBS-EP served as buffer, human TGF-β1 was immobilized on the surface of CM5 chip by Bicaore standard amino coupling. Binding of antibodies CT101, CT102, CT111, and CT112 to human TGF-β1 was performed, where the concentration of antibodies CT101, CT102, CT111, and CT112 was 250 nM, the flow rate was 30 μl/min, the binding duration was 120 s, and the dissociation duration was 880 s. The chip was regenerated by using 10 mM glycine, where PH was 2.7, the flow rate was 30 μl/min, and the duration was 120 s. The affinity constants were obtained by data fitting analysis with a 1:1 model. Data was collected with Biacore Control 2.0 software and analyzed using Biacore T200 Evaluation 2.0 software. The kinetics parameters of antibodies CT101, CT102, CT111, and CT112 binding to human TGF-β1 are shown in Table 2, and the test results of specific kinetic parameters of antibodies CT101, CT102, CT111, and CT112 binding to human TGF-β1 are shown in FIG. 7.

T1 sequence (P01137 279-390 limits assumed): as above

B1: anti-TGF-β1 antibody CAT192 (antibody, human IgG4, V domains shown)
VH: EVQLVESGGGVVQPGRSLRLSCAASGFTFSSYGMHWVRQAPGKELEWVAVISYDGSIKYYADSVKGRFTISRDNSKNTLYLQMNSLRAEDTAVYYCARTGEYSGYDTDPQYSWGQGTTVTVSS
VL: EIVLTQSPSSLSASVGDRVTITCRSSQGIGDDLGWYQQKPGKAPILLIYGTSTLQSGVPSRFSGSGSGTDFTLTINSLQPEDFATYYCLQDSNYPLTFGGGTRLEIK
notes: The background section calls CAT192 a human IgG4 monoclonal antibody
Binder B1 has a Kd [1] of 0.8 nM, a koff [1] of 2.4e-05 s⁻¹ and a kon [1] of 30000 M⁻¹ s⁻¹. For the same binder, the “IC50 (read off the curve)” value [2] was roughly 0.09 nM, the “IC50, TGF-β/Smad luciferase reporter in HEK293-CD4 cells” value [3] was 0.25 nM and the “IC50, TGF-β/Smad luciferase reporter in HEK293 cells” value (“IC50 … in HEK293 cells” for short) [3] was roughly 0.25 nM. For the same binder, the EC50 [4] was 0.0845 nM, the IC50 [5] was 0.105 nM and the “EC50 (read off the curve)” value [6] was roughly 0.08 nM.

B2: bifunctional antibody CT111 (bispecific antibody, human IgG4 S228P, kappa)
light: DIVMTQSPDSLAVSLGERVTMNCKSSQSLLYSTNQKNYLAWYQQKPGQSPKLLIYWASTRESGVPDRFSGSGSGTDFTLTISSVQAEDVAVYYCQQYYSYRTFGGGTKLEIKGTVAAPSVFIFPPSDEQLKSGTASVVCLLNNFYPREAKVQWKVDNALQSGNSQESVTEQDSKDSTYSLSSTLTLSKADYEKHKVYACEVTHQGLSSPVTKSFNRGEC
heavy: QVQLQQSGPEVVKPGASVKMSCKASGYTFTSYVIHWVRQKPGQGLDWIGYINPYNDGTDYDEKFKGKATLTSDTSTSTAYMELSSLRSEDTAVYYCAREKDNYATGAWFAYWGQGTLVTVSSASTKGPSVFPLAPCSRSTSESTAALGCLVKDYFPEPVTVSWNSGALTSGVHTFPAVLQSSGLYSLSSVVTVPSSSLGTKTYTCNVDHKPSNTKVDKRVESKYGPPCPPCPAPEFLGGPSVFLFPPKPKDTLMISRTPEVTCVVVDVSQEDPEVQFNWYVDGVEVHNAKTKPREEQFNSTYRVVSVLTVLHQDWLNGKEYKCKVSNKGLPSSIEKTISKAKGQPREPQVYTLPPCQEEMTKNQVSLWCLVKGFYPSDIAVEWESNGQPENNYKTTPPVLDSDGSFFLYSALTVDKSRWQEGNVFSCSVMHEALHNHYTQKSLSLSLGK
chain: EVQLVESGGGVVQPGRSLRLSCAASGFTFSSYGMHWVRQAPGKELEWVAVISYDGSIKYYADSVKGRFTISRDNSKNTLYLQMNSLRAEDTAVYYCARTGEYSGYDTDPQYSWGQGTTVTVSSGGGGSGGGGSGGGGSEIVLTQSPSSLSASVGDRVTITCRASQGIGDDLGWYQQKPGKAPILLIYGTSTLQSGVPSRFSGSGSGTDFTLTINSLQPEDFATYYCLQDSNYPLTFGGGTRLEIKYGPPCPPCPAPEFLGGPSVFLFPPKPKDTLMISRTPEVTCVVVDVSQEDPEVQFNWYVDGVEVHNAKTKPREEQFNSTYRVVSVLTVLHQDWLNGKEYKCKVSNKGLPSSIEKTISKAKGQPREPQVCTLPPSQEEMTKNQVSLSCAVKGFYPSDIAVEWESNGQPENNYKTTPPVLDSDGSFKLVSRLTVDKSRWQEGNVFSCSVMHEALHNHYTQKSLSLSLGK
For B2, the “IC50 … in HEK293 cells” value [3] was roughly 0.8 nM.

B3: bifunctional antibody CT112 (bispecific antibody, human IgG4 S228P, kappa)
light: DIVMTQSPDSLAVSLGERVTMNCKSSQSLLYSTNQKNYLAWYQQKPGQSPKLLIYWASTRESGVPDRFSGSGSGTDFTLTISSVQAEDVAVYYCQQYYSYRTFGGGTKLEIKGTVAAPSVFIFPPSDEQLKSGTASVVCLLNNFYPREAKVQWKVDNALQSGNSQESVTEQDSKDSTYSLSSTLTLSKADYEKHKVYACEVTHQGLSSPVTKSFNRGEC
heavy: QVQLQQSGPEVVKPGASVKMSCKASGYTFTSYVIHWVRQKPGQGLDWIGYINPYNDGTDYDEKFKGKATLTSDTSTSTAYMELSSLRSEDTAVYYCAREKDNYATGAWFAYWGQGTLVTVSSASTKGPSVFPLAPCSRSTSESTAALGCLVKDYFPEPVTVSWNSGALTSGVHTFPAVLQSSGLYSLSSVVTVPSSSLGTKTYTCNVDHKPSNTKVDKRVESKYGPPCPPCPAPEFLGGPSVFLFPPKPKDTLMISRTPEVTCVVVDVSQEDPEVQFNWYVDGVEVHNAKTKPREEQFNSTYRVVSVLTVLHQDWLNGKEYKCKVSNKGLPSSIEKTISKAKGQPREPQVYTLPPCQEEMTKNQVSLWCLVKGFYPSDIAVEWESNGQPENNYKTTPPVLDSDGSFFLYSALTVDKSRWQEGNVFSCSVMHEALHNHYTQKSLSLSLGK
chain 1: EVQLVESGGGVVQPGRSLRLSCAASGFTFSSYGMHWVRQAPGKELEWVAVISYDGSIKYYADSVKGRFTISRDNSKNTLYLQMNSLRAEDTAVYYCARTGEYSGYDTDPQYSWGQGTTVTVSGGSGTVAAPSVFIFPPSDEQLKSGTASVVCLLNNFYPREAKVQWKVDNALQSGNSQESVTEQDSKDSTYSLSSTLTLSKADYEKHKVYACEVTHQGLSSPVTKSFNRGECSKYGPPCPPCPAPEFLGGPSVFLFPPKPKDTLMISRTPEVTCVVVDVSQEDPEVQFNWYVDGVEVHNAKTKPREEQFNSTYRVVSVLTVLHQDWLNGKEYKCKVSNKGLPSSIEKTISKAKGQPREPQVCTLPPSQEEMTKNQVSLSCAVKGFYPSDIAVEWESNGQPENNYKTTPPVLDSDGSFKLVSRLTVDKSRWQEGNVFSCSVMHEALHNHYTQKSLSLSLGK
chain 2: EIVLTQSPSSLSASVGDRVTITCRSSQGIGDDLGWYQQKPGKAPILLIYGTSTLQSGVPSRFSGSGSGTDFTLTINSLQPEDFATYYCLQDSNYPLTFGGGTRLEIKGSSASTKGPSVFPLAPCSRSTSESTAALGCLVKDYFPEPVTVSWNSGALTSGVHTFPAVLQSSGLYSLSSVVTVPSSSLGTKTYTCNVDHKPSNTKVDKRVES
notes: also called IgG CrossMab
With B3 the “IC50 … in HEK293 cells” value [3] was roughly 1 nM, the Kd [7] was 1.97 nM and the koff [7] was 5.9e-05 s⁻¹. It also gave a kon [7] of 30000 M⁻¹ s⁻¹.
